{"source": "a protein production outcome set (Wang et al. 2014)", "test": "label from the status in PepcDB records"}
{"sequence": "MFKIYNNGNPIPMGYSQAVENNVQITNFALFSAAAIGVELCLFDEQNQETRLPMVRTENVWHLAVTGVKTGTEYAFRIHGEFANPQKLILDPYAKAVNGKPDLSSEESRSWFLLSDNRDNAHLAPRAVVIS", "values": [{"measurement": "protein production", "value": "failed"}]}
{"sequence": "MEEINKYIQNSSETGGEIYNLIEELFPICRSITGNGVRKTMDIIRKHIPLEIHEVKSGTKVFDWTVPKEWNIKDAYVRNSKGEKVIDFKENNLHVMSYSVPVHKTMTLDELKPYLHTIPGNKDRIPYLTSYYKENWGFSLTQNKFDELCDDDYEVVIDSSLEDGSLTYGEYYIRGELEEEILLTTYTCHPSMCNDNLSGVALITFIAKALSKLKTKYSYRFLFAPETIGSITWLSRNEDKLKNIKMGLVATCVGDAGIKNYKRTKFGDAEIDKIVEKVLMHCGSEYYVADFFPWGSDERQFSSPGINLSVGSLMRSCYGFDGYHTSADNLCYMNKDGLADSYKTYLEVIYTIENNRTYLNLNPKCEPQLGKRGIYRMIGGGSDYPFDEFAMFWVLNMSDGKNSLLDIAYKSGMEFRRIKYAADALYRVELLKLV", "values": [{"measurement": "protein production", "value": "not failed"}]}
{"sequence": "MSQQAARKLEKADIEAIFARSRFISAMNLEILDIDHAGSRFSVRMPLQDTYERGAPGTKQFHGGALAALIDVVGDFAIGMLVGGGVPTMNLRIDYLRPAVGDYVDGVAVVRKAGKSAAVVDIDILCPAGKLVAIGRGTYVPITG", "values": [{"measurement": "protein production", "value": "failed"}]}
{"sequence": "MKVGAVVITMGNRPEELRALLDSVAKQDGDPVQVVVVGNGSPVPEVPEGVRTVELPENLGIPGGRNVGIEAFGPGGSDVDILLFLDDDGLLARTDTAELCREAFAADDELGIISFRIADPDTGETQRRHVPRLRASDPMRSSRVTTFLGGANAVRTRVLTQVGGLPDAFFYAHEETDLAWRALDAGWMIDYRSDMVLNHPTTAPSRHAVYHRMVARNRVWLARRNLPALLVPVYLGVWMALTLLRRPSRPALKAWFGGFREGWATPCGPRRPMRWRTVWRLTRLGRPPVI", "values": [{"measurement": "protein production", "value": "failed"}]}
{"sequence": "MDCIRNNSVLINNLSSFTSGIMSSGYSPFYILYIAMNIATLTYAVGTLFYGLPIPIYGLKKWGPRMMSDAIYAAVWVNIYGIIIFAIGQIQSLLGVDWSSFFSSILQLQANMFSALIQVKSLYYIITTEKISMALALLADPVLQFSSFITDIIFLLQFFIDLGEFIQQSYMILIAIGILLLSLPFRMGKGVGGTLISSAIIFYIGLPYLPIFMQEMSSITLSQIGSQLSTITDVNTLVETIAGVVPELVIVFIIIPMLYLSILAGISLGLGNAIGGSSGRVPFPLDLF", "values": [{"measurement": "protein production", "value": "failed"}]}
{"sequence": "MRDLLNDLSEGLSHPDPILRAQIQMQKPLPKRFYKDVTVADVEEGGFTILLDGKPLRTPAKKPLVAPSRALADLLRDEWDAQKEVVNPVVMPVSRHVNTAIDGIASDTQAVFEDILRFSSSDLLCYRAGDPEALVARQTDYWDPVLDWATNVLGARFILVEGVMHRDQPREAIAAFAVTLKKYDTPIALAALHTMTSLTGSAILALALAEGELTLEEAWALAHLDEDWTAEQWGEDEEALERRAVRLIDMRAALNVLESLKSASLEHHHHHH", "values": [{"measurement": "protein production", "value": "failed"}]}
{"sequence": "NILFGISDTQECYNAIKFAVKLAHSLKEVRFTLLHVSMEVFIYSESGMMDYGQTEALEEEKAKALLKQFEDAFKKENIECESVLKSGDLIDVVLDMAKDYDLLLIGASESNLLYRLFISHQNSLVEQSSIPVVIAK", "values": [{"measurement": "protein production", "value": "failed"}]}
{"sequence": "MDTKTKRGFWIGINYSKTNLSLITASAILSIAFYLIYYNTKKTVAAVLFLALAIGAAFFFIKPIVDRDNKKNDINSNIPFFITAFSSLVTSDANIIDVLILLSKKEKLGYLRVEIEKILNLVKNWGMGLAEAINFVAKKTPSDLFSDFLTRFSHAIDSGQDLEEFTRSEVFSTMNSFETAYVSALYSFDLYRDIYVSLLLSFAFLITFIMIMPILIPINVFSVLMLSLIMVALGEFMLVYGISIVLPKDPLWHRTGIKTDTDIKMRNLFLISGTFSMMIFIVIDVMKIMFRIPFYFSFALIVTPLAYPSYVGTKMEREVQKKDEMYGSFIRSLSGSASARGNLLIDALKAIVMHDFGILSKDVNKLYRRLLYRINSLKAWKMFSADTGSHLIEIYSETYAESIDLGADALKSGMVISENFEKIVGLRKRKHSSVTSFVGIMYGITAGLAFSLAISYGILKIIDGIFSSFNLSSLGMTGIFLSPPSSSIFLIEIFLLIILFVHSFIGGISLKVSDGGRIINGLHHTVLMIWIVSFVVYGTMYITTILLGSTVS", "values": [{"measurement": "protein production", "value": "failed"}]}
{"sequence": "MDPNVITVTSYANIAIIKYWGKENQAKMIPSTSSISLTLENMFTTTSVSFLPDTATSDQFYINGILQNDEEHTKISAIIDQFRQPGQAFVKMETQNNMPTAAGLSSSSSGLSALVKACDQLFDTQLDQKALAQKAKFASGSSSRSFFGPVAAWDKDSGAIYKVETDLKMAMIMLVLNAAKKPISSREGMKLCRDTSTTFDQWVEQSAIDYQHMLTYLKTNNFEKVGQLTEANALAMHATTKTANPPFSYLTKESYQAMEAVKELRQEGFACYFTMDAGPNVKVLCLEKDLAQLAERLGKNYRIIVSKTKDLPDV", "values": [{"measurement": "protein production", "value": "not failed"}]}
{"sequence": "MLNQSNELNAWDRDHFFHPSTHMGTHARGESPTRIMAGGEGVTVWDNNGRKSIDAFAGLYCVNVGYGRQKIADAIATQAKNLAYYHAYVGHGTEASITLAKMIIDRAPKGMSRVYFGLSGSDANETNIKLIWYYNNVLGRPEKKKIISRWRGYHGSGVMTGSLTGLDLFHNAFDLPRAPVLHTEAPYYFRRTDRSMSEEQFSQHCADKLEEMILAEGPETIAAFIGEPILGTGGIVPPPAGYWEKIQAVLKKYDVLLVADEVVTGFGRLGTMFGSDHYGIKPDLITIAKGLTSAYAPLSGVIVADRVWQVLVQGSDKLGSLGHGWTYSAHPICVAAGVANLELIDEMDLVTNAGETGAYFRAELAKAVGGHKNVGEVRGDGMLAAVEFVADKDDRVFFDASQKIGPQVATALAASGVIGRAMPQGDILGFAPPLCLTREQADIVVSKTADAVKSVFANL", "values": [{"measurement": "protein production", "value": "not failed"}]}
{"sequence": "NDDIIVNWVNRTLSEAGKSTSIQSFKDKTISSSLAVVDLIDAIQPGCINYDLVKSGNLTEDDKHNNAKYAVSMARRIGARVYALPEDLVEVKPKMVMTVFACLMGRGMKRV", "values": [{"measurement": "protein production", "value": "not failed"}]}
{"sequence": "MQETDNLLKTLNVKSLLEALLVYTPKGYKDLNLLERFETGLSGVLEVGILEKRNYAKVLKIFAYSKRFYKNLELVFFNYSAFHHSQFKTGESLFIYGKLEQSSFNQAYIINTPKIITKFGKISLIFKKVKNHKKIQENLQKLISLENLKKEGVKENIAHLLLEIFFPTPHFVKDFETNKNFPSQHLNALKYIEMLFYMKNLERKKLQFGAKIACPNNNERLKAFIASLPFKLTRDQQNAIKEIQNDLTSSIACKRLIIGDVGCGKTMVILASMVLTYPNKTLLMAPTSILAKQLYNEALKFLPPYFEVELLLGGSYKKRSNHLFETITHVVIGTQALLFDKRDLNEFALVITDEQHRFGTKQRYQLEKMASSKGNKPHSLQFSATPIPRTLALAKSAFVKTTMIREIPYPKEIETLVLHKRDFKIVMEKISEEIAKNHQVIVVYPLVNESEKIPYLSLSEGASFWQKRFKKVYTTSGQDKNKEEVIEEFRESGSILLATTLIEVGISLPRLSVMVILAPERLGLATLHQLRGRVSRNGLKGYCFLCTIQEENERLEKFADELDGFKIAELDLEYRKSGDLLQGGEQSGNSFEYIDLAKDENIIAEVKRDFLKAASVSRGTFEN", "values": [{"measurement": "protein production", "value": "failed"}]}
{"sequence": "SAAKALKDLKNLPVSERNIDYKTKLLVGKMNGTAEDKPPQNSVPFDHNHPKGDEIEKPEAERVIVEIEYIESKDLNNVTQVDAVLKSLVTELDSKDWVLVCDALNTIRRLSIFHKEEMLHMLEKVILFIVKSLKNPRSAVSKTACMTSADIFSSYNDHTIDQLDLLLTQLLLKSSQDKRFVCEAAEKALVAMTAHVSPALLLPKLQPFLKNRNPRIRAKASTCFSRCVPRLGIEGIREYGIEKLVQAASSQLSDQLPESREAARAVLLELQTVYKKTTNVEPKEEHPEPVTWQIFCQSNLSPLSAQAVIRVTNVAGVAREGLVAGS", "values": [{"measurement": "protein production", "value": "failed"}]}
{"sequence": "MAASSQAPEAKGFRWKLIAPLVVWLAIYLWPVPSGLNVNQWHYFAVFAAVITGLILESMPVGAVGLIGLTVAGVGGYIDPDPTKSLRWMLAGFAESTVWLIVGAFVFSIGYRKSQLGRRIALVLVQKLGSNTLGLGYAVAMSDFLLAPATPSNTARSGGIVYPIISNIPRIYGSEPGPTAGRIGTYVMWTAFAATAVTSSLFFTALAPNAAALAIAKKTVGVEVSWGQWFIGFAPLGILLMILVPLLSYPVCRPEVKRSPEIAEWAAKELSEMGPMSRNEWIMLALIVLAMFLWIAGSSPDINVPLLGSNFVNATTVVFIVISLMLVTGVIEFADIVSEKSAWEVFFYFTSLLTLASGLNEIGFIKWFATEYAKPLAGLSPSTAMILLVALFFWIHYFFSSITSHAAAVLPVVLAVGSGIPGLPVTTLAMLCMYSLGLMGVISPYATGPAPMYFGSGYIGKGQFWGFGLIFGLLYFAGLLLIVLPWLQVR", "values": [{"measurement": "protein production", "value": "failed"}]}
